In general, Kd refers to the constant that tells how readily two partners part at equilibrium. A high value points to a looser complex. Usually stoichiometry N stands for a count of units in the complex or per binding partner. The koff is a measure of how fast the partners let go of each other. Read a high koff as a short-lived complex. Broadly, the kon is the second-order rate constant of association. Lower therefore signals slower complex formation.

The chains are these.
B1: MQSDLFA peptide (7-mer spanning the β clamp binding motif of MutS) (peptide)
peptide: MQSDLFA
B2: Pseudomonas aeruginosa DNA polymerase IV (Pol IV) (enzyme, UniProt Q9I534 1-349, looked up)
chain: MRKIIHIDCDCFYAALEMRDDPSLRGKALAVGGSPDKRGVVATCSYEARAYGVRSAMAMRTALKLCPDLLVVRPRFDVYRAVSKQIHAIFRDYTDLIEPLSLDEAYLDVSASPHFAGSATRIAQDIRRRVAEELHITVSAGVAPNKFLAKIASDWRKPDGLFVITPEQVDGFVAELPVAKLHGVGKVTAERLARMGIRTCADLRQGSKLSLVREFGSFGERLWGLAHGIDERPVEVDSRRQSVSVECTFDRDLPDLAACLEELPTLLEELDGRLQRLDGSYRPDKPFVKLKFHDFTQTTVEQSGAGRDLESYRQLLGQAFARGNRPVRLIGVGVRLLDLQGAHEQLRLF
B3: Pseudomonas aeruginosa mismatch repair protein MutS (natural protein, UniProt Q9HY08 1-855, looked up)
chain: MTDLSQHTPMMQQYFKLKHQHPDQLMFYRMGDFYELFYEDAKKAAKLLDITLTARGQSGGKAIPMAGIPFHSAEGYLAKLVKLGESVAICEQIGDPATSKGPVERQVVRIITPGTVSDEALLDERRDNLLAAILGDERLFGLAVLDITSGRFSVQEIKGWETLLAELERLNPAELLIPDDWPQGLPAEKRRGVRRRAPWDFDRDSAHKSLCQQFGTQDLKGFGCQNLTLAIGAAGCLLAYAKETQRTALPHLRSLRHDRLDDTVILDGASRRNLELDINLSGGRENTLQSVVDRCQTAMASRLMSRWLNRPLRDRAVLEARQESIACLLERYRFENLQPQLKEIGDLERILARIGLRNARPRDLARLRDALAALPDLQNAMTELEAPHLQALATTIGTYPELAELLAKAIIDNPPAVIRDGGVIKTGYDAELDELQALSENAGQFLMDLEAREKARTGLPNLKVGYNRIHGYFIELPRVQAEQAPADYIRRQTLKGAERFITPELKAFEDKALSAQSRALAREKALYEELLERLIGHLAPLQDSASALAELDVLANLAERALNLDLNRPRFVEHTCLHIEQGRHPVVEQVLETPFVANDLALDADTRMLVITGPNMGGKSTYMRQTALIVLLAHIGSFVPAARCELSLVDRIFTRIGSSDDLAGGRSTFMVEMSETANILHNATDKSLVLMDEVGRGTSTFDGLSLAWAAAEDLARTRAFTLFATHYFELTVLPESQPAVANVHLNATEHNERIVFLHHVLPGPASQSYGLAVAQLAGVPAPVIQRAREHLKRLETTSLPHEMPSQQSGKPASPMQSDLFASLPHPVIDELSRINPDDISPRQALDLLYAWKMRV
B4: Pseudomonas aeruginosa β clamp processivity factor (natural protein, UniProt Q9I7C4 1-367, looked up)
chain: MHFTIQREALLKPLQLVAGVVERRQTLPVLSNVLLVVEGQQLSLTGTDLEVELVGRVVLEDAAEPGEITVPARKLMDICKSLPNDVLIDIRVEEQKLLVKAGRSRFTLSTLPANDFPTVEEGPGSLNFSIAQSKLRRLIDRTSFAMAQQDVRYYLNGMLLEVNGGTLRSVATDGHRLAMCSLDAQIPSQDRHQVIVPRKGILELARLLTEQDGEVGIVLGQHHIRATTGEFTFTSKLVDGKFPDYERVLPRGGDKLVVGDRQQLREAFSRTAILSNEKYRGIRLQLSNGLLKIQANNPEQEEAEEEVQVEYNGGNLEIGFNVSYLLDVLGVIGTEQVRFILSDSNSSALVHEADNDDSAYVVMPMRL

The target of test [1] is B4. The experiment in a line: native gel or EMSA. Background: Mobility shift assays separate free from complexed probe on a gel.
Test [2] has as its target B4. Nature of the test: native gel or EMSA. The source holds these as a separate data set.
Test [3] has as its target B4. Nature of the test: SPR.
The target in test [4] is B3. Nature of the test: native gel or EMSA.
For test [5], the target named is B3. The experiment in a line: SPR.

As for B1, the binding result in test [1] was “binds”.
For the molecule B2, in test [2], the Kd was determined as 6.22 ± 0.51 µM and the “stoichiometry N” value was 1.09 ± 0.06. In test [3], this molecule came in with a Kd of 8.97 µM, a koff of 0.0052 s⁻¹ and an association rate constant (kon) of 580 M⁻¹ s⁻¹.
Consider B3, for which the “stoichiometry N” value in test [2] was found to be 4.
Take B4: binding in test [4] was put at a Kd of 1.66 ± 0.09 µM. In test [5], this molecule registered a koff of 0.111 s⁻¹ and a kon of 112000 M⁻¹ s⁻¹.

Values taken from publication PMC5027486 (Nucleic Acids Research, 2016).
